Test results as given in publication PMC2171568 (The Journal of Cell Biology, 2005).
Non-standard residues stand in square brackets, D forms with d. No end group written: not given here. pS = N[C@@H](COP(=O)(O)O)C(=O)O

What was measured:
[1] = biological target: T1, 14-3-3 Saccharomyces cerevisiae isoform BMH1, His-tagged (Saccharomyces cerevisiae, UniProt P29311 1-267); experiment: pull-down
T1 sequence (looked up): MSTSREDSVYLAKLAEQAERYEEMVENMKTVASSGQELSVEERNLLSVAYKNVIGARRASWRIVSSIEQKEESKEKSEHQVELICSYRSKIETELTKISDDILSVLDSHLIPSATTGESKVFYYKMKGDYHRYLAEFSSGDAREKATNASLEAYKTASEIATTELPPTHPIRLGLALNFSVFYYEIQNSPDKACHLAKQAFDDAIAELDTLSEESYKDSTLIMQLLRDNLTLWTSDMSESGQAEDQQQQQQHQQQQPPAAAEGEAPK

[2] = biological target: T2, 14-3-3 Saccharomyces cerevisiae isoform BMH2, His-tagged (Saccharomyces cerevisiae, UniProt P34730 1-273); experiment: pull-down
T2 sequence (looked up): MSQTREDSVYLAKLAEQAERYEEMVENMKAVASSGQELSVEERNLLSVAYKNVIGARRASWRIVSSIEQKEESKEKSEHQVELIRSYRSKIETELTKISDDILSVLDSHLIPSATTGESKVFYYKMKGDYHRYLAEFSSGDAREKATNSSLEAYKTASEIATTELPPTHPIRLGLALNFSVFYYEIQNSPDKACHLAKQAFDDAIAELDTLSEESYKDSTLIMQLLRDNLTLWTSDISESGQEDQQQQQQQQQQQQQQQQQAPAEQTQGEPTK

binding result [1]: binds | binding result [2]: binds
Binder: ARAA[pS]APA [peptide ARAApSAPA]
